Target: trastuzumab (human)
Assay: fluorescence polarisation

IC50 [µM] | Substance
> 3 | Fc-III V10K (peptide)
> 3 | Fc-III W4K (peptide)
> 3 | Fc-III W11K (peptide)

Reference: paper PMC10806771
